{
  "source": "patent US20070020718",
  "target": "T1, F-P564 peptide",
  "T1 chain": "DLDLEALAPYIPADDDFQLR",
  "data": [
    {"protein": "HIF-1alpha specific prolyl-4-hydroxylase-2 (PHD-2) (protein) MANDSGGPGGPSPSERDRQYCELCGKMENLLRCSRCRSSFYCCKEHQRQDWKKHKLVCQGSEGALGHGVGPHQHSGPAPPAAVPPPRAGAREPRKAAARRDNASGDAAKGKVKAKPPADPAAAASPCRAAAGGQGSAVAAEAEPGKEEPPARSSLFQEKANLYPPSNTPGDALSPGGGLRPNGQTKPLPALKLALEYIVPCMNKHGICVVDDFLGKETGQQIGDEVRALHDTGKFTDGQLVSQKSDSSKDIRGDKITWIEGKEPGCETIGLLMSSMDDLIRHCNGKLGSYKINGRTKAMVACYPGNGTGYVRHVDNPNGDGRCVTCIYYLNKDWDAKVSGGILRIFPEGKAQFADIEPKFDRLLFFWSDRRNPHEVQPAYATRYAITVWYFDADERARAKVKYLTGEKGVRVELNKPSDSVGKDVF", "values": [
      {"measurement": "prolyl hydroxylation of F-P564 peptide, mass analysis", "result": "the 564th proline group in F-P564 was hydroxylated by the addition of prolyl hydroxylase"}
    ]}
  ]
}
